In this assay the target is THO complex (endogenous, purified via Sub2 and Hpr1-TS) (S. cerevisiae | S. cerevisiae (endogenous in yeast)) (UniProt P17629). The assay can be described thus: cryo-EM structure; single-particle cryo-EM of the benzonase-treated native eluate on 2-nm carbon-supported grids; Glacios 200 kV; heterogeneous and nonuniform refinement without imposed symmetry.

Substance “THO complex (endogenous, purified via Sub2 and Hpr1-TS) (from UniProt P17629 1-752; P53552 1-1597)” came in with a stoichiometry N of 2.

In general, stoichiometry N refers to a count of units in the complex or per binding partner.

Source of the values: article PMC10393194.
